Target: mouse VPS29 (isotopically labelled NMR sample) (mouse)
Assay: NMR titration; SNX1 titrated into 0.1 mM 15N-labelled VPS29, soFast 15N HMQC, 298 K, 600 MHz; 10 mM HEPES (pH 7.5), 100 mM NaCl, DTT

Kd: > 150 µM
Substance: human SNX1 (recombinant, for NMR titrations) (from UniProt Q13596 1-522) (natural protein)
